This is an account of results in PMC10912764.

Test [1] deals with amyloid-β peptide Aβ (1–42) (UniProt P05067).
For test [2] the target is unchanged. The source holds these as a separate data set.

Sequence of E. coli CsgA protein with a C-terminal 6× His tag (P28307 21-151): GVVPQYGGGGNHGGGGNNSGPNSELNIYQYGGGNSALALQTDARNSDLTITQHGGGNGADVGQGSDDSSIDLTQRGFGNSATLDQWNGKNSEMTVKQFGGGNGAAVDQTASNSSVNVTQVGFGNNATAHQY

In test [1], “E. coli CsgA protein with a C-terminal 6× His tag (from UniProt P28307 21-151) (natural protein)” yielded an inhibition of Aβ aggregation (ThT fluorescence; 75 µM Aβ with 10 µM CsgA, excess Aβ 7.5:1) of 43% and a lag phase of Aβ aggregation (ThT) with CsgA; approximately 150 h without CsgA of 175 h. In addition, the inhibition of Aβ aggregation (ThT fluorescence; 75 µM Aβ with 10 µM CsgA), as given in the legend in test [2] stood at 47%.
